The values that follow come from PMC9700808, “Poly ADP-ribosylation of SET8 leads to aberrant H4K20 methylation in mammalian nuclear genome” (Communications Biology, 2021).

Series [1] deals with T1, full-length recombinant PARP1 protein (UniProt P09874 1-1014).
T1 construct: PARP1, full-length recombinant protein bought from Active Motif; also called purified PARP1; PARP1 recombinant enzyme; source: bought: Active Motif (# 81037)
The series is described as follows: pull-down; GST-SET8 fusions on glutathione-Sepharose beads, full-length recombinant PARP1 in solution; 1X PBS with 0.1% Triton X-100, 100 µg/ml BSA, 4 °C, 1 h; washes with 1% Triton X-100; western blot with anti-PARP1. The settings on record: both partners purified. (In general: Immunoblotting shows a protein as a band on a membrane.)

Series [2] deals with T2, His-SET8 (UniProt Q9NQR1-2 1-352).
T2 sequence: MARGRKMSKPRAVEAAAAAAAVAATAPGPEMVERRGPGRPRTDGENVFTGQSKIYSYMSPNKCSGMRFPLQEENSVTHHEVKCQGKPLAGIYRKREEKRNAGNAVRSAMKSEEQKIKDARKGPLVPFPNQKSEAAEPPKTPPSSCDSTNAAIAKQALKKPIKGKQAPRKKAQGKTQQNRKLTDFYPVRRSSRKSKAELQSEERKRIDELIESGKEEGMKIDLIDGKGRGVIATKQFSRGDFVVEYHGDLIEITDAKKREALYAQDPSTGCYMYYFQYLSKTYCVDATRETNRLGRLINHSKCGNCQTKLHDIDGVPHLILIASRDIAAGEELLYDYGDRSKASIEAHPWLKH
The series is described as follows: EMSA; 2 mM MgCl2; GRB buffer: 20 mM HEPES pH 7.5, 10% glycerol, 25 mM KCl, 0.1 mM EDTA, 1 mM DTT, 2 mM MgCl2, 0.2% NP40; on ice 10-15 min; 6% TBE gel, 0.5x TBE, 4 C. The settings on record: protein: recombinant; tags: His; label: Cy3 (end); hairpin, 10 bp stem with AAA loop. For orientation: In EMSA bound probe runs differently from free probe, usually more slowly.

T1 sequence (P09874 whole entry): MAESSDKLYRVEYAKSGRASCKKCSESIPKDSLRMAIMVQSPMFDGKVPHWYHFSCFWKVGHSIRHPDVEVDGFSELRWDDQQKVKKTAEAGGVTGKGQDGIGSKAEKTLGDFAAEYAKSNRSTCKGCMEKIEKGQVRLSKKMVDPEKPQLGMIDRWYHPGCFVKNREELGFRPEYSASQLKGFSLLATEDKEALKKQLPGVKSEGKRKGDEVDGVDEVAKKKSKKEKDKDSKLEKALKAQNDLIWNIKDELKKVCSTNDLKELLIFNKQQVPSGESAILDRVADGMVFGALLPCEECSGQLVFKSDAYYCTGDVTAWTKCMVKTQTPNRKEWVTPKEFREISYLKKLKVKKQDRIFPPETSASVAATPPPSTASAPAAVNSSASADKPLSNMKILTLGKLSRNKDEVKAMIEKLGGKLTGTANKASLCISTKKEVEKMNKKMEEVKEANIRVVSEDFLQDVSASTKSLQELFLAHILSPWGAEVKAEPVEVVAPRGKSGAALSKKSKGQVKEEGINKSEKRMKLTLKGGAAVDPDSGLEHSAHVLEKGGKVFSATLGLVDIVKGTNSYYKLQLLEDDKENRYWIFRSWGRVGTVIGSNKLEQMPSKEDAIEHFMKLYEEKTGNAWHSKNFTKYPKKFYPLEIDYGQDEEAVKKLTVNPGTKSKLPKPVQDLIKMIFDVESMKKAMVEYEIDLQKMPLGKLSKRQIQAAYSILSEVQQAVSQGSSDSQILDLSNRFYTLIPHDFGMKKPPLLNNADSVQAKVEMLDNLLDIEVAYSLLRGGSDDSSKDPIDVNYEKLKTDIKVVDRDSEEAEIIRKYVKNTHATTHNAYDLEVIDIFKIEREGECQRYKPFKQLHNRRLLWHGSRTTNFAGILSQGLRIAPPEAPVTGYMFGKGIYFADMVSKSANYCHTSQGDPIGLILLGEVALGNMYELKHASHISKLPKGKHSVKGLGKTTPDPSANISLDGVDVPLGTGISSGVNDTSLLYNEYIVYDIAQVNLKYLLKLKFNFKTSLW

B1: full-length GST fusion SET8 (GST-SET8 FL) (enzyme, UniProt Q9NQR1-2 1-352, looked up)
chain: MARGRKMSKPRAVEAAAAAAAVAATAPGPEMVERRGPGRPRTDGENVFTGQSKIYSYMSPNKCSGMRFPLQEENSVTHHEVKCQGKPLAGIYRKREEKRNAGNAVRSAMKSEEQKIKDARKGPLVPFPNQKSEAAEPPKTPPSSCDSTNAAIAKQALKKPIKGKQAPRKKAQGKTQQNRKLTDFYPVRRSSRKSKAELQSEERKRIDELIESGKEEGMKIDLIDGKGRGVIATKQFSRGDFVVEYHGDLIEITDAKKREALYAQDPSTGCYMYYFQYLSKTYCVDATRETNRLGRLINHSKCGNCQTKLHDIDGVPHLILIASRDIAAGEELLYDYGDRSKASIEAHPWLKH
notes: SET8 (KMT5A), full length; printed numbering runs to 352 (fragments 157-352, 175-352); vector pGEX5X.1; source: E. coli ER2566, purified, on glutathione-Sepharose beads
On to B1, for which the binding result in series [1] is “binds”.

B2: GST-SET8 disorder domain 80-230 (domain or fragment, UniProt Q9NQR1-2 80-230, looked up)
chain: EVKCQGKPLAGIYRKREEKRNAGNAVRSAMKSEEQKIKDARKGPLVPFPNQKSEAAEPPKTPPSSCDSTNAAIAKQALKKPIKGKQAPRKKAQGKTQQNRKLTDFYPVRRSSRKSKAELQSEERKRIDELIESGKEEGMKIDLIDGKGRGV
notes: SET8 (KMT5A) disorder domain, residues 80-230; printed numbering runs to 352; vector pGEX5X.1; primers in Supplementary File 1; also called GST-SET8 DD; disorder domain (DD); source: E. coli ER2566, purified, on glutathione-Sepharose beads
As for B2, in series [1], the binding result is “binds”.

B3: GST-SET8 N-terminal 1-98 (domain or fragment, UniProt Q9NQR1-2 1-98, looked up)
chain: MARGRKMSKPRAVEAAAAAAAVAATAPGPEMVERRGPGRPRTDGENVFTGQSKIYSYMSPNKCSGMRFPLQEENSVTHHEVKCQGKPLAGIYRKREEK
notes: SET8 (KMT5A) residues 1-98; vector pGEX5X.1; primers in Supplementary File 1; also called N-terminal 1–98 amino acids; source: E. coli ER2566, purified, on glutathione-Sepharose beads
As to B3, the binding result in series [1] is reported as “binds”.

B4: EcoRI hairpin oligonucleotide (structured_DNA)
DNA: GGGAATTCCCAAAGGGAATTCCC
By Kd is commonly meant the concentration at which binding is half-saturated. For B4, the Kd in series [2] came out at 1600 ± 600 nM.
